# Measurements taken from the DeepSol protein solubility set.
# Test: soluble on expression in E. coli; label from the status in PepcDB or PDB records
row,Sequence,soluble on expression in E. coli
1,MMKRARIIYNPTSGRELFKKSLPEVLQKLEQAGYEASCHATTGPGDATVAARQAADRKFDVVIAAGGDGTLNEVVNGLVGHEHRPKFGIIPVGTTNDFARAIGVPRSIEEAADIICEGKTVPLDLGRANDTYFINIAGGGRITELTYEVPSKLKTVLGQLAYYLKGIEMLPSLHPTYVEIEYDGKLLQEEITMFLITNTRSVGGFEKVAPYASINDGLFDLLVLKKGSIADLIKAATQAQRGEHINNPKVLYTQANRIKVHSPDKLMINLDGEYGGDAPMEFENIYHCLELFVPEHQEDAL,not soluble
2,MMLNAWHLPVPPFVKQSKDQLLITLWLTGEDPPQRIMLRTEHDNEEMSVPMHKQRSQPQPGVTAWRAAIDLSSGQPRRRYSFKLLWHDRQRWFTPQGFSRMPPARLEQFAVDVPDIGPQWAADQIFYQIFPDRFARSLPREAEQDHVYYHHAAGQEIILRDWDEPVTAQAGGSTFYGGDLDGISEKLPYLKKLGVTALYLNPVFKAPSVHKYDTEDYRHVDPQFGGDGALLRLRHNTQQLGMRLVLDGVFNHSGDSHAWFDRHNRGTGGACHNPESPWRDWYSFSDDGTALDWLGYASLPKLDYQSESLVNEIYRGEDSIVRHWLKAPWNMDGWRLDVVHMLGEAGGARNNMQHVAGITEAAKETQPEAYIVGEHFGDARQWLQADVEDAAMNYRGFTFPLWGFLANTDISYDPQQIDAQTCMAWMDNYRAGLSHQQQLRMFNQLDSHDTARFKTLLGRDIARLPLAVVWLFTWPGVPCIYYGDEVGLDGKNDPFCRKPFPWQVEKQDTALFALYQRMIALRKKSQALRHGGCQVLYAEDNVVVFVRVLNQQRVLVAINRGEACEVVLPASPFLNAVQWQCKEGHGQLTDGILALPAISATVWMN,soluble
3,MMLSATQPLSEKLPAHGCRHVAIIMDGNGRWAKKQGKIRAFGHKAGAKSVRRAVSFAANNGIEALTLYAFSSENWNRPAQEVSALMELFVWALDSEVKSLHRHNVRLRIIGDTSRFNSRLQERIRKSEALTAGNTGLTLNIAANYGGRWDIVQGVRQLAEKVQQGNLQPDQIDEEMLNQHVCMHELAPVDLVIRTGGEHRISNFLLWQIAYAELYFTDVLWPDFDEQDFEGALNAFANRERRFGGTEPGDETA,soluble
4,MMLSLNNLQNIIYNPVIPYVGTIPDQLDPGTLIVICGHVPSDADRFQVDLQNGSSVKPRADVAFHFNPRFKRAGCIVCNTLINEKWGREEITYDTPFKREKSFEIVIMVLKDKFQVAVNGKHTLLYGHRIGPEKIDTLGIYGKVNIHSIGFSFSSDLQSTQASSLELTEISRENVPKSGTPQLSLPFAARLNTPMGPGRTVVVKGEVNANAKSFNVDLLAGKSKDIALHLNPRLNIKAFVRNSFLQESWGEEERNITSFPFSPGMYFEMIIYCDVREFKVAVNGVHSLEYKHRFKELSSIDTLEINGDIHLLEVRSW,soluble
5,MMNEKILIVDDQYGIRILLNEVFNKEGYQTFQAANGLQALDIVTKERPDLVLLDMKIPGMDGIEILKRMKVIDENIRVIIMTAYGELDMIQESKELGALTHFAKPFDIDEIRDAVKKYLPLKSN,soluble
6,MMNTNTTNNTVLLFTFNNIQGRGLQTAIEQNLEKPVLLTQGADVNLPSTRDEHYVAIVDSSLPELPEVKQTLSELEHVDATVLVNAEPNLRIESLLTWSNLKGLFYFEDDFDKVMMGLKGILNGENWLSRDILN,not soluble
7,MMSAPKITFIGAGSTIFVKNILGDVFHREALKTAHIALMDIDPTRLEESHIVVRKLMDSAGASGKITCHTQQKEALEDADFVVVAFQIGGYEPCTVTDFEVCKRHGLEQTIADTLGPGGIMRALRTIPHLWQICENMTEVCPDATMLNYVNPMAMNTWAMYARYPYIKQVGLCHSVQGTAEELARDLNIDPATLRYRCAGINHMAFYLELERKTADGSYVNLYPELLAAYEAGQAPKPNIHGNTRCQNIVRYEMFKKLGYFVTESSEHFAEYTPWFIKLGREDLIERYKVPLDEYPKRCVEQLANWHKELEEYKNASRIDIKPSREYASTIMNAIWTGEPSVIYGNVRNDGLIDNLPQGCCVEVACLVDANGIQPTKVGTLPSHLAALMQTNINVQTLLTEAILTENRDRVYHAAMMDPHTAAVLGIDEIYALVDDLIAAHGDWLPSWLHR,not soluble
8,MMSESNKQQAVNKLTEIVANFTAMISTRMPDDVVDKLKQLKDAETSSMGKIIYHTMFDNMQKAIDLNRPACQDTGEIMFFVKVGSRFPLLGELQSILKQAVEEATIKAPLRHNAVEIFDEVNTGKNTGSGVPWVTWDIVPDGDDAEIEVYMAGGGCTLPGRSKVLMPSEGYEGVVKFVFENISTLAVNACPPVLVGVGIATSVETAAVLSRKAILRPIGSRHPNPKAAELELRLEEGLNRLGIGPQGLTGNSSVMGVHIESAARHPSTIGVAVSTGCWAHRRGTLLVHADLTFENLSHTRSAL,not soluble
9,MMSVPVMADEGTKWDWPLQKGDGVVNVLDDDDHFEVGLEAHNFLPKEIEVKNIGELLEIHMEHNVKKDSFGDVSRNITRCYKLPKNVDMKTIKSNLDSHGILHIEARKMH,not soluble
10,MMTTIVMESTTEKVCEASSDACPKLETMFDATPQIVEIDGCQDITCPGNAVPYLVATFPASEIEPFYPMDVVNPFNVIPPSTISGSVIDYYGKICDGGVWKFTKYPDGIHVNDSDTIMGEDGSLTGKKSTLLVVTWYGFC,not soluble
11,MNAERCEFIAGNSLIEVIPSISDDRPIHLISGDIGPFEAGVPCRIPVWTAILMKRKHNCKVVAPQWMDVDELKKILTSETESQGLAKLPDHFFEISHMLVRDAREDIFEVEAVKSLVQDIYDRRDAKLRSSAIEFLRQNQTCHAQLDNVQLIEASSARATLEACRQMGAVVRNKHESTPL,not soluble
12,MNAFFTRALKPGARPLDETPGAILCPADGAVSQLGPIEHGRIFQAKGHGFSAQELLGGDPAMAAPFMGGEFATIYLSPKDYHRVHMPLAGTLREMVYVPGRLFSVNQTTAENVPELFARNERVVCLFDTERGPMAVVLVGAMIVASIETVWAGLVTPPKRELKTFRYDEASRTPIHLEKGAELGRFKLGSTAIVLFGPEQVKWAESLGAGSAVRMGQQLAAPAQALEHHHHHH,not soluble
13,MNAGSDPVVIVSAARTIIGSFNGALAAVPVQDLGSTVIKEVLKRATVAPEDVSEVIFGHVLAAGCGQNPVRQASVGAGIPYSVPAWSCQMICGSGLKAVCLAVQSIGIGDSSIVVAGGMENMSKAPHLAYLRTGVKIGEMPLTDSILCDGLTDAFHNCHMGITAENVAKKWQVSREDQDKVAVLSQNRTENAQKAGHFDKEIVPVLVSTRRGLIEVKTDEFPRHGSNIEAMSKLKPYFLTDGTGTVTPANASGINDGAAAVVLMKKSEADKRGLTPLARIVSWSQVGVEPSIMGIGPIPAIKQAVTKAGWSLEDVDIFEINEAFAAVSAAIVKELGLNPEKVNIEGGAIALGHPLGASGCRILVTLLHTLERMGRSRGVAALCIGGGMGIAMCVQRE,soluble
14,MNALSGLQVITRRPDKRSASGVTKKCRKSLKTAPDTKTVFKGSFASHYVDKSSQVNPGTHITVRGSIHGEVSIKKMLKGSRCRTAL,not soluble
15,MNAMERENTVKSVRRALQIIEIVSTKKDGLGVTEIAKQMDINKSSVYRILTTLAQYGYIEQHPETERYKLGYKFLELSSKLLDSIDLRQEAKPYLRELEKETNEVIHLVVYDQGEVIYIEKLEGTETLRMHSKVGKRAPMHCTAVGKAILAHLPPAVAAEIIDRKGLPKHTDWTITDREAFFRELETVRQNGYALDLEENEYGIRCVAVPIFDYTGGVVAAISVSGPTIRMTDDRITSLTVRMRQIGKELSARLGYRGAHSVQL,soluble
16,MNASLTPDQVSKKLKQFFSDHLPISQFMGLEIESYDGDTLILTAPLEPNINDKQTAFGGSLYNAAVMACWGMVYLKTQEENIACNQVVTEGNMKYIAPVYGRIRAICHAPDEEELANFFDHFERKGKARISLEAAIYNDACVMKIEPETKPSVKFNGQYAILKNQ,soluble
17,MNASQPPPGGRLPDEVFRKITAVDQGQSTLTQSGIQGLSARTLSSEPRGDLVFQLVEIIKKPGQSLGLYLREGNGKDRSDGVFVSRFGDNSELAKYGEVMRPGDEILTINNVEVSMMSIDDVVLILSIPRRLLLRIRYSKSMRHEIISSRSRESERPVVVFHKYDDRRDSETNAPILSQPTSTANTWLGKKSRQQMEEMRNATTSSTLRTHASTSSPRNHFAPRLVNGHSHSIGVPSASTTSHDHQYQRFASEPSDSVSRTARVPPPRLASATVRRTESFNSAPGVSTSAPMYTLPRSSTAVPPPDILGSIPYSARDPLMRSSADLPYDPMTGRLSSSVPTDPLLSRSLCSPILPRTLRQANDSNKSNSLPRRRIMTGGRNVKWRNDVVSTSDLCGEESDGAISAPEYSSPPFSRLTQQQQFRLSNGSPGRTVNDIFSAAEYRNWAGPYDPRGMYGPFPPGQRATRWSHTYGEQRAPRTSSLPGRTVLAQSLVGSPVLPRHPPPIVQDRPSAVFDRYHVSPLMNRRAPLRAAGPGINVDRLSVSSLTGILYVHIVEGRGLKIPEKQKGLTEEMYCVLEVDEQHRARTGVSTIEQKFKWRETFHIDVVNATVSNFFVYSWHPQFRHKLCHKGSLKLLEAFVVDQLNDDRVFALNLEPRGQLIVRIGFHDLQAVFRRTVNPRLNGVFGISLSRLVQRERRDTPIVLTRLIQEIEKRGVDYSGLYVLCGSVEKKKMLRAELESNPLGTELAAESIPDTNVIACLIKDFLRELPEPLISPQIHGMLLEAASVALPNDVQTNRHLVLKIIDCLQLSAKNCLLLVLDHLSTVLCSSPHNGLTPTRLSLIFAPLLFFCLDTFSPYTISPTSKMAAVRTLDINQASSSLQMILSIWPSRVSELVEFFPFLLNYPTVSYSSPNPHSESGSDSPATTCQKGGVIAYVSESQC,not soluble
18,MNDAVITLNGLEKRFPGMDKPAVAPLDCTIHAGYVTGLVGPDGAGKTTLMRMLAGLLKPDSGSATVIGFDPIKNDGALHAVLGYMPQKFGLYEDLTVMENLNLYADLRSVTGEARKQTFARLLEFTSLGPFTGRLAGKLSGGMKQKLGLACTLVGEPKVLLLDEPGVGVDPISRRELWQMVHELAGEGMLILWSTSYLDEAEQCRDVLLMNEGELLYQGEPKALTQTMAGRSFLMTSPHEGNRKLLQRALKLPQVSDGMIQGKSVRLILKKEATPDDIRHADGMPEININETTPRFEDAFIDLLGGAGTSESPLGAILHTVEGTPGETVIEAKELTKKFGDFAATDHVNFAVKRGEIFGLLGPNGAGKSTTFKMMCGLLVPTSGQALVLGMDLKESSGKARQHLGYMAQKFSLYGNLTVEQNLRFFSGVYGLRGRAQNEKISRMSEAFGLKSIASHATDELPLGFKQRLALACSLMHEPDILFLDEPTSGVDPLTRREFWLHINSMVEKGVTVMVTTHFMDEAEYCDRIGLVYRGKLIASGTPDDLKAQSANDEQPDPTMEQAFIQLIHDWDKEHSNE,soluble
19,MNDAVPAGNFVPPLILHSDHGGSAMSSSAHRGRILHFLGDPAKLGDKAWEYFEDGLLWIEHGHVRALDHATYLLPQLPADLPLEEHPQRLLLPGFVDCHVHYPQLGVIASYGTQLLDWLETHTFPAEQRFADAGYAAAQAELFLDELLRHGTTTALVFGTVHAVSAEAFFQAAQKRRLRMIAGKVLMDRNAPPALCDTAASGYAESRALIERWHGNGRLQYAVTPRFAPTSSPEQLAAAARLLDEYPGVYLHTHLSENLKEVAWVGELFPQAQDYLDVYHRAGLVGERSVFAHGIHLSERECRCLAHKNAALAHCPSSNLFIGSGLFDLGRAQQYGIRVGIGSDVGGGTSLSLLANLADAYKIQQLRGTSLDPFQALYLATLGGARALDLDGLVGNFLPGREADFVALDLAATPMIAQRMEHARGLADTLFVLNTLGDDRAVAETWVMGERRHVKG,not soluble
